Measured values taken from US20160068605A1 (Janssen / Centocor, published 2016).

Experiments:
[1] = target: T1, cell-surface CD3 epsilon on primary cynomolgus T cells (cynomolgus monkey, UniProt Q95LI5 22-198); assay: flow cytometry on primary cynomolgus CD4+ T cells, anti-human IgG Alexa Fluor 647; MFI
T1 construct: whole, on cells; also called cynomolgus CD3e; Cyno T-cells
Procedure: (§1) The resulting panel of anti-CD3 antibodies was tested for binding against cell-surface CD3ε on primary human T cells. To do this, binding of antibodies from expression supernatants was visualized using a polyclonal anti-human secondary antibody and analyzed by flow cytometry. Briefly, binding of anti-CD3 antibodies to cell-surface CD3ε was assessed by flow cytometry using primary Human T lymphocytes purified by negative selection (Biological Specialty, Colmar, USA). Expression supernatants or purified antibodies were normalized to 10 μg/ml in media or FACS buffer (BD BioSciences), respectively. 2×10⁵ cells were aliquoted into wells of a 96 well round-bottomed plate (CoStar) for labeling. Antibodies in expression supernatant were added to cells and incubated for 45 min at 4° C. Following centrifugation at 1300 rpm for 3 min and removal of supernatant, 50 μL of anti-human IgG (H+L) Alexa Fluor 647 secondary antibody (Life technologies Inc.) was incubated with the cells at a final concentration of 10 μg/mL for 30 min at 4° C. away from direct light. Following washing and resuspension in 30 μL FACs buffer (BD BioSciences). Sample collection was performed on an Intellicyt HTFC system using ForeCyt software. Viable single cells were gated prior to analysis of binding using the green or red fixable live/dead dyes (Life Technologies Inc.) and forward/side scatter area and height parameters, respectively. Graphs were generated in GraphPad Prism version 5 using mean fluorescence intensity values.
Binding analysis of the anti-CD3 hits to primary cynomolgusCD4⁺ T cells was then tested in order to assess the retention of cross-reactivity. Purified CD4⁺ T cells from the peripheral blood of cynomolgus monkeys (Zen Bio, Triangle Research Park, USA were used). Assay protocols were similar to those described above.

[2] = target: T2, cell-surface CD3 epsilon on primary human T cells (human, UniProt P07766 23-207); assay: flow cytometry on primary human T cells, anti-human IgG Alexa Fluor 647; MFI
T2 construct: whole, on cells; part of the CD3/TCR complex on the cells
Procedure: as §1

T2 sequence (P07766 23-207): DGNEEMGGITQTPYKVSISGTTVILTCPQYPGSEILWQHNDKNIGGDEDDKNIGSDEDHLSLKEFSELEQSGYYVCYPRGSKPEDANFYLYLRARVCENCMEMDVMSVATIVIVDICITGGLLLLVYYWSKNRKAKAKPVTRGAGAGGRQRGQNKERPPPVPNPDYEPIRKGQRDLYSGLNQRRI
T1 sequence (Q95LI5 22-198): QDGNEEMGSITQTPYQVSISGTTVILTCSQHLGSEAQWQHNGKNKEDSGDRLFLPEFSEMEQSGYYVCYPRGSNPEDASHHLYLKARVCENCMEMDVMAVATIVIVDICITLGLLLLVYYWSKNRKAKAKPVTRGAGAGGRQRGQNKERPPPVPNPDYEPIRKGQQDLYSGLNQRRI

Binder | binding result [1] | binding result [2]
CD3B124 (antibody, human IgG1, V domains shown, Chimeric: VH and VL of SP34 with murine framework and a human IgG1 Fc; also called in-house chimeric SP34-derived antibody) VH: EVKLLESGGGLVQPKGSLKLSCAASGFTFNTYAMNWVRQAPGKGLEWVARIRSKYNNYATYYADSVKDRFTISRDDSQSILYLQMNNLKTEDTAMYYCVRHGNFGNSYVSWFAYWGQGTLVTVSA VL: QAVVTQESALTTSPGETVTLTCRSSTGAVTTSNYANWVQEKPDHLFTGLIGGTNKRAPGVPARFSGSLIGDKAALTITGAQTEDEAIYFCALWYSNLWVFGGGTKLTVL | binds | –
CD3B143 (antibody, IgG1, V domains shown, IgG1 constant region with L234A, L235A, F405L; human lambda light chain constant region) VH: EVQLVESGGGLVQPGGSLRLSCAASGFTFNTYAMNWVRQAPGKGLEWVARIRSKYNNYATYYAASVKGRFTISRDDSKNSLYLQMNSLKTEDTAVYYCARHGNFGNSYVSWFAYWGQGTLVTVSS VL: QAVVTQEPSLTVSPGGTVTLTCRSSTGAVTTSNYANWVQQKPGQAPRGLIGGTNKRAPGTPARFSGSLLGGKAALTLSGAQPEDEAEYYCALWYSNLWVFGGGTKLTVL | binds | binds
CD3B151 (antibody, IgG1, V domains shown, IgG1 constant region with L234A, L235A, F405L; human lambda light chain constant region) VH: EVQLLESGGGLVQPGGSLRLSCAASGFTFNTYAMNWVRQAPGKGLEWVARIRSKYNNYATYYADSVKGRFTISRDNSKNTLYLQMNSLRAEDTAVYYCVKHGNFGNSYVSWFAYWGQGTLVTVSS VL: QAVVTQEPSLTVSPGGTVTLTCRSSTGAVTTSNYANWVQQKPGQAPRGLIGGTNKRAPGTPARFSGSLLGGKAALTLSGAQPEDEAEYYCALWYSNLWVFGGGTKLTVL | binds | binds
CD3B156 (antibody, IgG1, V domains shown, IgG1 constant region with L234A, L235A, F405L; human lambda light chain constant region) VH: EVQLVESGGGLVQPGGSLKLSCAASGFTFNTYAMNWVRQASGKGLEWVGRIRSKYNGYATYYAASVKGRFTISRDDSKNTAYLQMNSLKTEDTAVYYCTRHGNFGNSYVSWFAYWGQGTLVTVSS VL: QSVLTQPPSVSAAPGQKVTISCRSSTGAVTTSNYANWVQQLPGTAPKGLIGGTNKRAPGIPDRFSGSKSGTSATLGITGLQTGDEADYYCALWYSNLWVFGGGTKLTVL | binds | binds
CD3B152 (antibody, IgG1, V domains shown, IgG1 constant region with L234A, L235A, F405L; human lambda light chain constant region) VH: EVQLLESGGGLVQPGGSLRLSCAASGFTFNTYAMNWVRQAPGKGLEWVARIRSKYNNYATYYADSVKGRFTISRDNSKNTLYLQMNSLRAEDTAVYYCVKHGNFGNSYVSWFAYWGQGTLVTVSS VL: QSVLTQPPSVSAAPGQKVTISCRSSTGAVTTSNYANWVQQLPGTAPKGLIGGTNKRAPGIPDRFSGSKSGTSATLGITGLQTGDEADYYCALWYSNLWVFGGGTKLTVL | no binding (tested: not printed) | no binding
CD3B158 (antibody, IgG1, V domains shown, IgG1 constant region with L234A, L235A, F405L; human lambda light chain constant region) VH: EVQLVESGGGLVQPGGSLKLSCAASGFTFNTYAMNWVRQASGKGLEWVGRIRSKYNGYATYYAASVKGRFTISRDDSKNTAYLQMNSLKTEDTAVYYCTRHGNFGNSYVSWFAYWGQGTLVTVSS VL: QTVVTQEPSLTVSPGGTVTLTCRSSTGAVTTSNYANWVQQKPGQAPRGLIGGTNKRAPGTPARFSGSLLGGKAALTLSGVQPEDEAEYYCALWYSNLWVFGGGTKLTVL | binds | binds
CD3B155 (antibody, IgG1, V domains shown, IgG1 constant region with L234A, L235A, F405L; human lambda light chain constant region) VH: EVQLVESGGGLVQPGGSLKLSCAASGFTFNTYAMNWVRQASGKGLEWVGRIRSKYNGYATYYAASVKGRFTISRDDSKNTAYLQMNSLKTEDTAVYYCTRHGNFGNSYVSWFAYWGQGTLVTVSS VL: QAVVTQEPSLTVSPGGTVTLTCRSSTGAVTTSNYANWVQQKPGQAPRGLIGGTNKRAPGTPARFSGSLLGGKAALTLSGAQPEDEAEYYCALWYSNLWVFGGGTKLTVL | binds | binds
CD3B154 (antibody, IgG1, V domains shown, IgG1 constant region with L234A, L235A, F405L; human lambda light chain constant region) VH: EVQLLESGGGLVQPGGSLRLSCAASGFTFNTYAMNWVRQAPGKGLEWVARIRSKYNNYATYYADSVKGRFTISRDNSKNTLYLQMNSLRAEDTAVYYCVKHGNFGNSYVSWFAYWGQGTLVTVSS VL: QTVVTQEPSLTVSPGGTVTLTCRSSTGAVTTSNYANWVQQKPGQAPRGLIGGTNKRAPGTPARFSGSLLGGKAALTLSGVQPEDEAEYYCALWYSNLWVFGGGTKLTVL | binds | binds
